By Kd is commonly meant the equilibrium constant for the complex coming apart. Read a low Kd as a tighter complex.

This test deals with thermolysin cleaved Ebola virus GP (GPTHL) (Ebola virus (EBOV), UniProt Q05320). The test is described as follows: BLI.

B1: Fab114 (antigen-binding fragment of mAb114) (Fab, V domains shown)
VH: EVQLVESGGGLIQPGGSLRLSCAASGFALRMYDMHWVRQTIDKRLEWVSAVGPSGDTYYADSVKGRFAVSRENAKNSLSLQMNSLTAGDTAIYYCVRSDRGVAGLFDSWGQGILVTVSS
VL: DIQMTQSPSSLSASVGDRITITCRASQAFDNYVAWYQQRPGKVPKLLISAASALHAGVPSRFSGSGSGTHFTLTISSLQPEDVATYYCQNYNSAPLTFGGGTKVEIK
The molecule B1 had a Kd of 8 nM.

B2: Fab100 (antigen-binding fragment of mAb100) (Fab, V domains shown)
VH: QVQLQESGPGLVKPSDTLSLTCTVSGGSLSSFYWSWIRQPPGKGLEWIGYIYYSGSPNYSPSLESRVTMSVDTTRNQISLKLDSVTAADTAVYYCVRASRSYYWGSYRPTAFDSWGQGTLVTVSS
VL: YELTQPLSVSVSPGQTAIFTCSGDNLGDKYVCWFQQRPGQSPMLLIYQDNKRPSGIPERFSGSNSGNTATLTISGTQSTDEADYYCQTWDSTVVFGGGTKLTVL
As for B2, the binding result is “binds”.

Source of the values: PMC5241105 (Science (New York, N.Y.), 2016).
